B1: Anti-CT-4B11mut2单克隆抗体 (antibody, part only; not given: light chain, part only)
heavy: QVQVRQSGPGLVQPSQSLSITCTVSGFSLRSHGVNWVRQSPRKGLEWLGVIWKGGSTEYSAAFMSRLSISKDNSKNQIFFKMNSLQADDTAIYYCAKNNDYGRFDYWGQGTLVTVSAAKTTAPSVYPLAPVCGDTTGSSVTLGCLVKGYFPEPVTLTWNSGSLSSGVHTFPAVLQSDLYTLSSSVTVTSSTWPSQSITCNVAHPASSTKVDKKIEPRGPTIKPCPPCKCPAPNLLGGPSVFIFPPKIKDVLMISLSPIVTCVVVDVSEDDPDVQISWFVNNVEVHTAQTQTHREDYNSTLRVVSALPIQHQDWMSGKEFKCKVNNKDLPAPIERTISKPKGSVRAPQVYVLPPPEEEMTKKQVTLTCMVTDFMPEDIYVEWTNNGKTELNYKNTEPVLDSDGSYFMYSKLRVEKKNWVERNSYSCSVVHEGLHNHHTTKSFSRTPGK
B2: Anti-CT-4B11mut1单克隆抗体 (antibody, mouse IgG2a, kappa, V domains shown)
VH: QVQVRQSGPGLVQPSQSLSITCTVSGFSLRSHGVNWVRQSPRKGLEWLGVIWKGGSTEYSAAFMSRLSISKDNSKNQIFFKMNSLQADDTAIYYCAKNNDYGRFDYWGQGTLVTVSA
VL: EVVLTQSPTTLAASPGETITITCRVSSSISSSYLHWYQQKPGFSPKLLIYRTSNLASGVPARFSGSGSGTSYSLTIGTMEADDVATYYCQQGSSLPRTFGGGTTLEIKR

Legend:
[1] = target: 沙眼衣原体培养物(购自菲鹏生物) (Chlamydia trachomatis); assay: indirect ELISA, plate coated with C. trachomatis culture diluted 100x; antibody at 5 ng/ml
[2] = target: 沙眼衣原体培养物(购自菲鹏生物) (Chlamydia trachomatis); assay: indirect ELISA, plate coated with C. trachomatis culture diluted 100x; antibody at 10 ng/ml
[3] = target: 沙眼衣原体培养物(购自菲鹏生物) (Chlamydia trachomatis); assay: indirect ELISA, plate coated with C. trachomatis culture diluted 100x; antibody at 20 ng/ml
[4] = target: 沙眼衣原体培养物(购自菲鹏生物) (Chlamydia trachomatis); assay: indirect ELISA, plate coated with C. trachomatis culture diluted 100x; antibody at 40 ng/ml
[5] = target: 沙眼衣原体培养物(购自菲鹏生物) (Chlamydia trachomatis); assay: indirect ELISA, plate coated with C. trachomatis culture diluted 100x; antibody at 2.5 ng/ml
[6] = target: 沙眼衣原体培养物(购自菲鹏生物) (Chlamydia trachomatis); assay: indirect ELISA, plate coated with C. trachomatis culture diluted 100x; antibody at 0 ng/ml (blank)

| Molecule | OD (450nm, 参考630nm) [1] [OD] | OD (450nm, 参考630nm) [2] [OD] | OD (450nm, 参考630nm) [3] [OD] | OD (450nm, 参考630nm) [4] [OD] | OD (450nm, 参考630nm) [5] [OD] | OD (450nm, 参考630nm) [6] [OD] |
| --- | --- | --- | --- | --- | --- | --- |
| 对照 (antibody) | 0.503 | 0.825 | 1.2 | 1.79 | 0.291 | 0.025 |
| B1 | 0.959 | 1.33 | 1.71 | 1.92 | 0.507 | 0.026 |
| B2 | 0.811 | 1.14 | 1.65 | 1.9 | 0.462 | 0.043 |

Source: patent publication CN116854812A
